Measured values reported in patent publication US20220325265A1, “GLUCOCEREBROSIDASE MUTANTS” (Hoffmann-la Roche Inc., priority 2019, published 2022).

What was measured:
[1] = tested on: H4 glioblastoma GBA-KO cells; test: Reduction of natural substrate GlcSph in H4 GBA-KO cells (LC/MS); format: cell-based, human; conditions: 48 h, vs untreated H4 GBA-KO cells
Method: FIG. 9: Reduction of the natural substrate GlcSph after treatment of H4 glioblastoma GBA-KO cells with hGCase molecules. Treatment concentration (hGCase protein): 1, 10 and 100 nM, respectively. Analysis of substrate levels after 48 h of incubation via LC/MS. H4 wt cells (GCase levels normalized to 100%) and H4 GBA-KO cells (loss of GBA gene) served as control. ^1 measured glucosylsphingosine (GlcSph) levels normalized to total protein amount. ^2 H4 glioblastoma cells with knock-out GBA gene.
(§1) Human H4 glioblastoma cells (H4 cells) were taken as human neuronal model to test purified hGCase variants in a cell-based setup. H4 wild-type cells and untreated H4 GBA-KO cells (knock-out of related GCase GBA gene) were taken as references. After seeding (40000 cells/well) and incubating them for ˜24 h, the GBA-KO cells were treated with 1, 10 and 100 nM of target protein sample and incubated for either 2 h (for uptake and GCase activity measurements) or 48 h (for substrate reduction measurements) at 37° C. with 5% CO2 and constant humidity. After cell-lysis (GCase activity buffer (table 2.6)+0.1% (w/v) Triton X-100+phosphatase (Phospho stop Roche in-house)+protease inhibitor (cOmplete EDTA-free)), the uptake of the enzymes into the cells was evaluated by measuring the hGCase concentration via AlphaLISA (section 2.3.6) as well as the activity after the uptake (section 2.3.5). Samples for substrate reduction determination were hand over to Iris Ruf (SMR, see section 2.7). Due to the loss of the GCase related GBA gene in H4 GBA-KO cells, the natural substrate glucosylsphingosine (GlcSph) accumulates. The reduction of GlcSph levels due to hGCase treatment was evaluated via LC/MS by Iris Ruf (SMR).
(§2) Finally, the cellular uptake, activity and substrate reduction in human neuronal cells were determined to test the mutants' efficacy in a more cellular context. In this work, human H4 glioblastoma wild-type cells (wt) and H4 GBA-KO cells (knock-out of GCase related GBA gene) were used as a Gaucher cell model. H4 GBA-KO cells, which accumulate the natural substrate glucosylsphingosine (GlcSph) due to the loss of the GBA gene, were treated with 1, 10 and 100 nM of hGCase molecules, respectively. Activity and protein concentration (via AlphaLISA) were measured after two hours of incubation after several media wash steps. The reduction of natural substrate GlcSph was analyzed 48 h after cell treatment via LC/MS. The activity measured after uptake into the cells normalized to measured hGCase protein levels is graphed in FIG. 8. The evaluated activities are given as percentage of hGCase activity measured in wt H4 cells, set to 100%.
To determine the enzymes' efficacies, the reduction of accumulated glucosylsphingosine (GlcSph) in H4 GBA-KO cells was investigated.

[2] = Activatability of hGCase mutants by phosphatidylserine; format: biochemical; conditions: 25 nM protein; for phosphatidylserine activation, fold increase of initial activity: 4 μM phosphatidylserine, 10 min pre-incubation at RT
Method: Negatively charged lipids as phosphatidylserine are known to stabilize and activate the enzyme usually in combination with Saposin C (SAP-2), since GCase is naturally interacting with the membrane of the lysosomes in vivo. For the assay, 25 nM protein and 4 μM phosphatidylserine (Avanti; 10 mM stock solution dissolved in chloroform) were tested.
After adding the lipid to the enzyme, the solution was pre-incubated for 10 min at RT before adding the substrate and initializing the enzymatic reaction. The hGCase activity without added phosphatidylserine was set to 100% relative enzyme activity. The increase in activity was expressed as X-fold the initial activity without activator.
Several physiological substances have been reported to stimulate the activity of glucocerebrosidase. GCase is naturally interacting with the membrane of the lysosomes in vivo, thus negatively charged lipids such as phosphatidylserine are known to stabilize and activate the enzyme alone or in combination with Saposin C (SAP-2) (Qi & Grabowski, 1998; Sun et al., 2002; Vaccaro et al., 1995). Thus, it is essential to preserve these properties when modifying the GCase enzyme structure. To this end, the effect of phosphatidylserine alone was evaluated as first approach. The activity levels with and without added phosphatidylserine are plotted in FIG. 6.
By translating the data into fold increase of the initial activity, a more conclusive statement can be drawn (FIG. 7).

[3] = tested on: H4 glioblastoma GBA-KO cells; test: GCase activity after uptake into H4 GBA-KO cells, normalized to hGCase protein level; format: cell-based, human; conditions: 2 h incubation
Method: FIG. 8: Activity levels normalized to hGCase protein levels measured after treatment of H4 glioblastoma GBA-KO cells with hGCase molecules. Treatment concentration (hGCase protein): 1, 10 and 100 nM (100 nM not shown herein), respectively. Activity and protein amount measurement after 2 h of incubation. Activity measured with artificial substrate res-β-glc (20 μM); protein concentration determination via AlphaLISA (section 2.3.6). H4 wt cells (GCase levels normalized to 100%) and H4 GBA-KO cells (loss of GBA gene) served as control. ^1 GCase activity measured in H4 cells normalized to activity measured in H4 (wt) cells designated to 100% and normalized to protein amount. ^2 H4 glioblastoma cells with knock-out GBA gene.
as §1
as §2, with “H4 GBA-KO cells, which accumulate the natural substrate glucosylsphingosine (GlcSph) due to the loss of the GBA gene, were treated with 1, 10 and 100 nM of hGCase molecules, respectively.” left out

phosphatidylserine activation, fold increase of initial activity [2] [fold] | basal activity level (no added lipid) ([2]; no phosphatidylserine) | Molecule | reduction in GlcSph levels (%) ([1]; 10 nM treatment) | reduction in GlcSph levels (fold) ([1]; 10 nM treatment) | GCase activity level normalized to H4 wt GCase activity (100%) and protein amount ([3]; 1 nM protein treatment) [%] | GCase activity level normalized to H4 wt GCase activity (100%) and protein amount ([3]; 10 nM protein treatment) [%] | reduction in GlcSph levels (%) ([1]; 1 nM treatment)
4.9 | – | R495HS2: hGCase based on the Cerezyme sequence (R495H) but produced in S2 cells, His8-tagged; Seq. Id. No. 1 (protein, listed as Homo sapiens, His8 tag) ARPCIPKSFGYSSVVCVCNATYCDSFDPPTFPALGTFSRYESTRSGRRMELSMGPIQANHTGTGLLLTLQPEQKFQKVKGFGGAMTDAAALNILALSPPAQNLLLKSYFSEEGIGYNIIRVPMASCDFSIRTYTYADTPDDFQLHNFSLPEEDTKLKIPLIHRALQLAQRPVSLLASPWTSPTWLKTNGAVNGKGSLKGQPGDIYHQTWARYFVKFLDAYAEHKLQFWAVTAENEPSAGLLSGYPFQCLGFTPEHQRDFIARDLGPTLANSTHHNVRLLMLDDQRLLLPHWAKVVLTDPEAAKYVHGIAVHWYLDFLAPAKATLGETHRLFPNTMLFASEACVGSKFWEQSVRLGSWDRGMQYSHSIITNLLYHVVGWTDWNLALNPEGGPNWVRNFVDSPIIVDITKDTFYKQPMFYHLGHFSKFIPEGSQRVGLVASQKNDLDAVALMHPDGSAVVVVLNRSSKDVPLTIKDPAVGFLETISPGYSIHTYLWHRQ | ~75 | 4 | – | – | –
7.5 | least basal activity level | I5N: recombinant human β-glucocerebrosidase variant R495H/I5N, S2 cells; Seq. Id. No. 4 (protein, listed as Homo sapiens, recombinant human β-glucocerebrosidase variant R495H/I5N, S2 cells; Id; No. 4) ARPCNPKSFGYSSVVCVCNATYCDSFDPPTFPALGTFSRYESTRSGRRMELSMGPIQANHTGTGLLLTLQPEQKFQKVKGFGGAMTDAAALNILALSPPAQNLLLKSYFSEEGIGYNIIRVPMASCDFSIRTYTYADTPDDFQLHNFSLPEEDTKLKIPLIHRALQLAQRPVSLLASPWTSPTWLKTNGAVNGKGSLKGQPGDIYHQTWARYFVKFLDAYAEHKLQFWAVTAENEPSAGLLSGYPFQCLGFTPEHQRDFIARDLGPTLANSTHHNVRLLMLDDQRLLLPHWAKVVLTDPEAAKYVHGIAVHWYLDFLAPAKATLGETHRLFPNTMLFASEACVGSKFWEQSVRLGSWDRGMQYSHSIITNLLYHVVGWTDWNLALNPEGGPNWVRNFVDSPIIVDITKDTFYKQPMFYHLGHFSKFIPEGSQRVGLVASQKNDLDAVALMHPDGSAVVVVLNRSSKDVPLTIKDPAVGFLETISPGYSIHTYLWHRQ | ~75 | 4 | – | – | –
11.5 | – | imiglucerase (protein, UniProt P04062 40-536, looked up, variant R495H, imiglucerase; CHO-produced, Commercially available Cerezyme (imiglucerase, Genzyme), hGCase R495H produced in CHO cells) Lysosomal acid …: ARPCIPKSFGYSSVVCVCNATYCDSFDPPTFPALGTFSRYESTRSGRRMELSMGPIQANHTGTGLLLTLQPEQKFQKVKGFGGAMTDAAALNILALSPPAQNLLLKSYFSEEGIGYNIIRVPMASCDFSIRTYTYADTPDDFQLHNFSLPEEDTKLKIPLIHRALQLAQRPVSLLASPWTSPTWLKTNGAVNGKGSLKGQPGDIYHQTWARYFVKFLDAYAEHKLQFWAVTAENEPSAGLLSGYPFQCLGFTPEHQRDFIARDLGPTLANSTHHNVRLLMLDDQRLLLPHWAKVVLTDPEAAKYVHGIAVHWYLDFLAPAKATLGETHRLFPNTMLFASEACVGSKFWEQSVRLGSWDRGMQYSHSIITNLLYHVVGWTDWNLALNPEGGPNWVRNFVDSPIIVDITKDTFYKQPMFYHLGHFSKFIPEGSQRVGLVASQKNDLDAVALMHPDGSAVVVVLNRSSKDVPLTIKDPAVGFLETISPGYSIHTYLWHRQ | 97 | – | 4 | 44 | 82
~2.8 | – | K321N/H145L: Amicus double mutant hGCase R495H/K321N/H145L produced in S2 cells; Seq. Id. No. 3 (protein, listed as Homo sapiens, Amicus double mutant hGCase R495H/K321N/H145L produced in S2 cells; Id; No. 3) ARPCIPKSFGYSSVVCVCNATYCDSFDPPTFPALGTFSRYESTRSGRRMELSMGPIQANHTGTGLLLTLQPEQKFQKVKGFGGAMTDAAALNILALSPPAQNLLLKSYFSEEGIGYNIIRVPMASCDFSIRTYTYADTPDDFQLLNFSLPEEDTKLKIPLIHRALQLAQRPVSLLASPWTSPTWLKTNGAVNGKGSLKGQPGDIYHQTWARYFVKFLDAYAEHKLQFWAVTAENEPSAGLLSGYPFQCLGFTPEHQRDFIARDLGPTLANSTHHNVRLLMLDDQRLLLPHWAKVVLTDPEAAKYVHGIAVHWYLDFLAPANATLGETHRLFPNTMLFASEACVGSKFWEQSVRLGSWDRGMQYSHSIITNLLYHVVGWTDWNLALNPEGGPNWVRNFVDSPIIVDITKDTFYKQPMFYHLGHFSKFIPEGSQRVGLVASQKNDLDAVALMHPDGSAVVVVLNRSSKDVPLTIKDPAVGFLETISPGYSIHTYLWHRQ | – | – | – | – | –
6.5 | – | M53T/P55T: recombinant human β-glucocerebrosidase variant R495H/M53T/P55T, S2 cells; Seq. Id. No. 7 (protein, listed as Homo sapiens, recombinant human β-glucocerebrosidase variant R495H/M53T/P55T, S2 cells; Id; No. 7) ARPCIPKSFGYSSVVCVCNATYCDSFDPPTFPALGTFSRYESTRSGRRMELSTGTIQANHTGTGLLLTLQPEQKFQKVKGFGGAMTDAAALNILALSPPAQNLLLKSYFSEEGIGYNIIRVPMASCDFSIRTYTYADTPDDFQLHNFSLPEEDTKLKIPLIHRALQLAQRPVSLLASPWTSPTWLKTNGAVNGKGSLKGQPGDIYHQTWARYFVKFLDAYAEHKLQFWAVTAENEPSAGLLSGYPFQCLGFTPEHQRDFIARDLGPTLANSTHHNVRLLMLDDQRLLLPHWAKVVLTDPEAAKYVHGIAVHWYLDFLAPAKATLGETHRLFPNTMLFASEACVGSKFWEQSVRLGSWDRGMQYSHSIITNLLYHVVGWTDWNLALNPEGGPNWVRNFVDSPIIVDITKDTFYKQPMFYHLGHFSKFIPEGSQRVGLVASQKNDLDAVALMHPDGSAVVVVLNRSSKDVPLTIKDPAVGFLETISPGYSIHTYLWHRQ | ~88 | 8.3 | ~4 | 26 | –
